6 molecules from patent US20260167699A1 (Chugai, published 2026) can be followed below.

Holding throughout (test): SPR (Biacore); binding relative to GpH7-A5/GpH7-B3/GpL16-k0 x100;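 also: antibodies captured on a chip surface, soluble FcγR flowed over in HBS-EP+ running buffer at 25 °C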
The target in test [1] is T1, FcγRIIIa extracellular domain, C-terminal His tag (human, UniProt P08637 17-208).
T1 construct: extracellular domain; also called 3a

Test [2] deals with T2, FcγRIIa(H) extracellular domain, C-terminal His tag (human, UniProt P12318 34-217).
T2 construct: extracellular domain; Allotype H131; also called 2aH
T2 sequence: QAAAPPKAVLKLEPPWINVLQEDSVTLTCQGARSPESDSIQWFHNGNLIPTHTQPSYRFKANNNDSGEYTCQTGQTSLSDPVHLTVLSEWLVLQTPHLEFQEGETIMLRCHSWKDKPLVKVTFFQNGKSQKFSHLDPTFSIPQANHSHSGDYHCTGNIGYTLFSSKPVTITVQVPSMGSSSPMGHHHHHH

The target in test [3] is T3, FcγRIa extracellular domain, C-terminal His tag (human, UniProt P12314 16-292).
T3 construct: extracellular domain; also called 1a
T3 sequence (P12314 other isoform, or with tags, fused parts or gaps): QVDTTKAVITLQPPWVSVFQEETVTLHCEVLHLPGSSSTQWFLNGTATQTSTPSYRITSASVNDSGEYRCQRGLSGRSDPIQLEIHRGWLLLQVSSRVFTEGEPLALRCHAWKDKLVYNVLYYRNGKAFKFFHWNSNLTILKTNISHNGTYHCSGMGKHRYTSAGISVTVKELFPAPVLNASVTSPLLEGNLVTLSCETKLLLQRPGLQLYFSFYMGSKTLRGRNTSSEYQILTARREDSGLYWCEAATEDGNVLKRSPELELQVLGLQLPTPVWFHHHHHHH

For test [4], the target named is T4, FcγRIIa(R) extracellular domain, C-terminal His tag (human, UniProt P12318 34-217).
T4 construct: extracellular domain; Allotype R131; also called 2aR
T4 sequence: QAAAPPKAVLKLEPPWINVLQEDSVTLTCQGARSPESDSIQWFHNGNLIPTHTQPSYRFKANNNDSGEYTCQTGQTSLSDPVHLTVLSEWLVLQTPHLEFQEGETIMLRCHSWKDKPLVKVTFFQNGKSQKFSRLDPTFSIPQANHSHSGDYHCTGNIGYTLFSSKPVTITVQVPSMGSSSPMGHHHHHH

The target in test [5] is T5, FcγRIIb extracellular domain, C-terminal His tag (human, UniProt P31994 43-217).
T5 construct: extracellular domain; also called 2b
T5 sequence: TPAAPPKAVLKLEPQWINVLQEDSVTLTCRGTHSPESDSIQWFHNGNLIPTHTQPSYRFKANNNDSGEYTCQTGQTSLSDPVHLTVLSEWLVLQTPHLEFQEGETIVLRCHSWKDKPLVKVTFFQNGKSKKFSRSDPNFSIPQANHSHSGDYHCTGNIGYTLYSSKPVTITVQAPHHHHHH

T1 sequence (P08637 other isoform, or with tags, fused parts or gaps): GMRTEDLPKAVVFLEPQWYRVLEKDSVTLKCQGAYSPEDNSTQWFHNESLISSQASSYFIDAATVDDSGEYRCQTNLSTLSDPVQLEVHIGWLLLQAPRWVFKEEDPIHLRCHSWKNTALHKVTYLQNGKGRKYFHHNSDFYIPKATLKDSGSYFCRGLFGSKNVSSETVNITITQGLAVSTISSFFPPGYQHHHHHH

B1: GpH7-A5/GpH7-B3 variant A327_10E/GpL16-k0 (antibody, human IgG1, kappa)
heavy 1: not shown
heavy 2: not shown
light: DIVMTQSPLSLPVTPGEPASISCQASESLVHSNRNTYLHWYLQKPGQSPQLLIYKVSNRFSGVPDRFSGSGSGTDFTLKISRVEAEDVGVYYCSQNTHVPPTFGQGTKVEIERTVAAPSVFIFPPSDEQLKSGTASVVCLLNNFYPREAKVQWKVDNALQSGNSQESVTEQDSKDSTYSLSSTLTLSKADYEKHKVYACEVTHQGLSSPVTKSFNRGEC
notes: He Ab: anti-glypican 3 IgG1 heterodimer, only the GpH7-B3 chain mutated; position in EU numbering; also called He Ab
On to B1, for which the “He/Con 3a” value in test [1] is 70.5%. In addition, in test [2], the “He/Con 2aH” value amounted to 108%. The “He/Con 1a” value in test [3] was 106%. Also, the “He/Con 2aR” value in test [4] came to 142%. For the same molecule, the “He/Con 2b” value in test [5] was determined as 175%.

B2: GpH7-A5/GpH7-B3 variant A327_19Q/GpL16-k0 (antibody, human IgG1, kappa)
heavy 1: not shown
heavy 2: not shown
light: DIVMTQSPLSLPVTPGEPASISCQASESLVHSNRNTYLHWYLQKPGQSPQLLIYKVSNRFSGVPDRFSGSGSGTDFTLKISRVEAEDVGVYYCSQNTHVPPTFGQGTKVEIERTVAAPSVFIFPPSDEQLKSGTASVVCLLNNFYPREAKVQWKVDNALQSGNSQESVTEQDSKDSTYSLSSTLTLSKADYEKHKVYACEVTHQGLSSPVTKSFNRGEC
notes: as for B1
For the molecule B2, the “He/Con 3a” value in test [1] was 54%. In test [2], the “He/Con 2aH” value came to 79.6%. Further, the “He/Con 1a” value in test [3] was found to be 98.5%. Besides, in test [4], the “He/Con 2aR” value was 77.7%. Also, the “He/Con 2b” value in test [5] is 67.5%.

B3: GpH7-A5/GpH7-B3 variant A330_01G/GpL16-k0 (antibody, human IgG1, kappa)
heavy 1: not shown
heavy 2: not shown
light: DIVMTQSPLSLPVTPGEPASISCQASESLVHSNRNTYLHWYLQKPGQSPQLLIYKVSNRFSGVPDRFSGSGSGTDFTLKISRVEAEDVGVYYCSQNTHVPPTFGQGTKVEIERTVAAPSVFIFPPSDEQLKSGTASVVCLLNNFYPREAKVQWKVDNALQSGNSQESVTEQDSKDSTYSLSSTLTLSKADYEKHKVYACEVTHQGLSSPVTKSFNRGEC
notes: as for B1
For B3, in test [1], the “He/Con 3a” value worked out at 87.3%. Further, the “He/Con 2aH” value in test [2] turned out to be 107%. Besides, the “He/Con 1a” value in test [3] was determined as 109%. Besides, the “He/Con 2aR” value in test [4] was 122%. In addition, the “He/Con 2b” value in test [5] was 117%.

B4: GpH7-A5/GpH7-B3 variant A327_18N/GpL16-k0 (antibody, human IgG1, kappa)
heavy 1: not shown
heavy 2: not shown
light: DIVMTQSPLSLPVTPGEPASISCQASESLVHSNRNTYLHWYLQKPGQSPQLLIYKVSNRFSGVPDRFSGSGSGTDFTLKISRVEAEDVGVYYCSQNTHVPPTFGQGTKVEIERTVAAPSVFIFPPSDEQLKSGTASVVCLLNNFYPREAKVQWKVDNALQSGNSQESVTEQDSKDSTYSLSSTLTLSKADYEKHKVYACEVTHQGLSSPVTKSFNRGEC
notes: as for B1
On to B4, for which, in test [1], the “He/Con 3a” value amounted to 62.8%. Further, the “He/Con 2aH” value in test [2] was 79%. The “He/Con 1a” value in test [3] amounted to 100%. The “He/Con 2aR” value in test [4] worked out at 114%. Further, in test [5], the “He/Con 2b” value came out at 141%.

B5: GpH7-A5/GpH7-B3 variant A327_13S/GpL16-k0 (antibody, human IgG1, kappa)
heavy 1: not shown
heavy 2: not shown
light: DIVMTQSPLSLPVTPGEPASISCQASESLVHSNRNTYLHWYLQKPGQSPQLLIYKVSNRFSGVPDRFSGSGSGTDFTLKISRVEAEDVGVYYCSQNTHVPPTFGQGTKVEIERTVAAPSVFIFPPSDEQLKSGTASVVCLLNNFYPREAKVQWKVDNALQSGNSQESVTEQDSKDSTYSLSSTLTLSKADYEKHKVYACEVTHQGLSSPVTKSFNRGEC
notes: as for B1
Regarding B5, in test [1], the “He/Con 3a” value stood at 66.7%. The “He/Con 2aH” value in test [2] turned out to be 84.4%. For the same molecule, the “He/Con 1a” value in test [3] worked out at 105%. Besides, in test [4], the “He/Con 2aR” value was 98.6%. In addition, the “He/Con 2b” value in test [5] amounted to 99%.

B6: GpH7-A5/GpH7-B3 variant A327_20W/GpL16-k0 (antibody, human IgG1, kappa)
heavy 1: not shown
heavy 2: not shown
light: DIVMTQSPLSLPVTPGEPASISCQASESLVHSNRNTYLHWYLQKPGQSPQLLIYKVSNRFSGVPDRFSGSGSGTDFTLKISRVEAEDVGVYYCSQNTHVPPTFGQGTKVEIERTVAAPSVFIFPPSDEQLKSGTASVVCLLNNFYPREAKVQWKVDNALQSGNSQESVTEQDSKDSTYSLSSTLTLSKADYEKHKVYACEVTHQGLSSPVTKSFNRGEC
notes: as for B1
Regarding B6, the “He/Con 3a” value in test [1] came out at 52.6%. In addition, the “He/Con 2aH” value in test [2] stood at 76.6%. For the same molecule, the “He/Con 1a” value in test [3] stood at 100%. In addition, the “He/Con 2aR” value in test [4] turned out to be 95.9%. Further, the “He/Con 2b” value in test [5] amounted to 98.2%.
